The values below come from article PMC10876938, “In vitro SELEX and application of an African swine fever virus (ASFV) p30 protein specific aptamer”.

Broadly, the Kd is the equilibrium constant for the complex coming apart.

The data set addresses ASFV p30 (African swine fever virus, UniProt P34204 1-204). As to the kind of experiment: enzyme-linked aptamer adsorbed assay; […] (binding buffer not stated); […], room temperature, 30 min; […]. As to conditions: protein: commercial, label: 5'-biotin.
[1] abbreviates: hairpin (M-fold predicted for parent).

ASFV p30, sequence (P34204 whole entry): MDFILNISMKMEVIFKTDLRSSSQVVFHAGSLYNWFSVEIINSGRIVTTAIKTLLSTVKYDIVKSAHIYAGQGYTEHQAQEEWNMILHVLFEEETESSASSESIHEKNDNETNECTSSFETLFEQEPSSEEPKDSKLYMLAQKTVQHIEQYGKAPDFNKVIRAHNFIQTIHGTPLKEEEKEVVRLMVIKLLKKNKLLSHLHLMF

Consider GGGTCGACGGTGCCGTCCGTGTTCACACTCCCATTTGGGTGGCC (ssDNA) [Atc-34], for which, under setting [1], the Kd was 0.266 ± 0.068 nM.

B1: Atc-20 (ssDNA)
DNA: CACGCATAGGGTCGACGGTGCCGTCCGTGTTCACACTCCCATTTGGGTGGCCTATGCGTG
Take B1: under setting [1], the Kd was 0.14 ± 0.01 nM.

B2: Apt A4 (biotin) (ssDNA)
DNA: ATTGGCACTCCACGCATAGGGTCGACGGTGCCGTCCGTGTTCACACTCCCATTTGGGTGGCCTATGCGTGCTACCGTGAA
With B2, under “hairpin (M-fold predicted)”, the Kd was 0.17 ± 0.0062 nM.
As to ATTGGCACTCCACGCATCTATGCGTGCTACCGTGAA (ssDNA) [AptNC], the binding result is “no binding”.

B3: Atc-28 (ssDNA)
DNA: CATAGGGTCGACGGTGCCGTCCGTGTTCACACTCCCATTTGGGTGGCCTATG
With B3, the Kd under setting [1] is 0.153 ± 0.0003 nM.
